Here are results for one molecule from patent US20250297020A1 (ADALTA, published 2025).

For assay [1], the target named is T1, human RANK-L (Receptor Activator of Nuclear factor Kappa B Ligand), recombinant (human, UniProt O14788 140-317, limits assumed).
T1 sequence (looked up): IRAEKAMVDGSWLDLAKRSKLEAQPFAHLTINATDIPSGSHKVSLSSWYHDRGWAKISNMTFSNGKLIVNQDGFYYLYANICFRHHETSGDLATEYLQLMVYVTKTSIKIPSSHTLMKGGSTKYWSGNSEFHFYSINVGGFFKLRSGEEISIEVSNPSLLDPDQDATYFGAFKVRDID
Put plainly: cell-based or functional assay.

Assay [2] deals with T1, human RANK-L (Receptor Activator of …). Put plainly: SPR (Biacore), human RANK-L immobilised on the chip, ADR03 injected. The protocol: (§1) Measurement of the kinetics of ADR03 binding to human RANK-L was carried out by immobilising human RANKL onto a research grade CMS sensor chip using standard amine coupling. Each of three surfaces is first activated for seven minutes using a 1:1 mixture of […] N-hydroxysuccinimide (NHS) and […] 1-ethyl-3-(3-dimethylaminopropyl)-carbodimide (EDC). Then, the RANK-L sample is diluted 1- to 50-fold in 10 mM sodium acetate, pH 4.0, and exposed to the activated chip surface for different lengths of time (ten seconds to two minutes) to create three different density surfaces of RANK-L. Each surface is then blocked with a seven-minute injection of 1 M ethanolamine, pH 8.2. RANK-L is diluted 100-fold and injected for different amounts of time to be captured at three different surface densities (60 RU, 45 RU, 12 RU; Response Unit (RU) is termed by Biacore and relates to target molecule per surface area) onto a streptavidin-containing sensor chip. The experiments can be performed on a Biacore® 2000 or T100 optical biosensor. ADR03 is supplied at approximately 100 μg/mL and tested in a 3-fold dilution series in Sample Running Buffer over the three RANK-L surfaces. Each of ADR03 concentrations (five, 3-fold dilutions of RANK-L-coupled sensors) is tested three times to assess reproducibility of the assay. Each test is injected at a flow rate of 100 μL/minute for 60 seconds, followed by a three-minute dissociation phase. Bound ADR03 can then be removed using a five-second pulse with sensor regeneration solution. All data is usually collected at a temperature-controlled 20° c. The kinetic responses for the ADR03 injections can be analyzed using the non-linear least squares analysis program CLAMP (Myszka, D. G. and Morton, T. A. (1998) Trends Biochem. Sci., 23: 149-150). Calculations of multivalent interactions can be determined using a model to fit the avidity of the bivalent interaction of ADR03 with RANK-L (Drake et al. (2004) Anal. Biochem., 328: 35-43; and Muller et al., (1998) Anal. Biochem. 261: 149-158).
On the technique in general: Surface plasmon resonance follows binding to a sensor surface in real time, without labels.

For assay [3] the target is unchanged. Put plainly: SPR (Biacore) sensorgrams with fitted curves; panel headed "pAb+RANKL"; value from the column "KD" of the table drawn in the panel. The protocol: as §1, with “The experiments can be performed on a Biacore® 2000 or T100 optical biosensor. ADR03 is supplied at approximately 100 μg/mL and tested in a 3-fold dilution series in Sample Running Buffer over the three RANK-L surfaces. Each of ADR03 concentrations (five, 3-fold dilutions of RANK-L-coupled sensors) is tested three times to assess reproducibility of the assay. Each test is injected at a flow rate of 100 μL/minute for 60 seconds, followed by a three-minute dissociation phase. Bound ADR03 can then be removed using a five-second pulse with sensor regeneration solution. All data is usually collected at a temperature-controlled 20° c.” left out

Several values for one entry are separate records, joined by “and”; a condition that tells them apart may be missing. Identical values can stand only once.

B1: ADR03 i-body (RANK-L binding i-body on the NCAM domain 1 scaffold) (designed binder)
chain: LQVDIVPSQGEISVGESKFFLCQVAGAHTVESISWFSPNGEKLTPNQQRISVVWNDDSSSTLTIYNANIDDAGIYKCVVVASARRGFGWVYPHEATVNVKIFQ
notes: I-bodies were expressed in E. coli with FLAG or penta-His tags; also called ADR3; i-body ADR03
Turning to B1, the “IC50 of inhibition of hRANK-L-induced production of TRAP positive multinucleated cells (RAW264.7)” value in assay [1] is 100 ng/mL and 3 nM. In assay [2], the dissociation constant (Kd) worked out at 13.2 nM, the koff came out at 0.00029 s⁻¹ and the on-rate constant (kon) was ~23000 M⁻¹ s⁻¹. In addition, the Kd in assay [3] amounted to 13.2 nM.

By Kd is commonly meant the constant that tells how readily two partners part at equilibrium. Usually koff stands for the rate constant with which the complex falls apart. One may read the kon as a measure of how fast the partners come together.
